By IC50 is commonly meant the concentration at which inhibition is half-maximal. The EC50 is the concentration needed to bring the measured effect to its halfway point.

For test [1], the target named is huILT4 protein (human). The experiment in a line: competition, FACS, blocking HLA-G.
Test [2] concerns the target huILT4 protein (human). The test is described as follows: competition, ELISA, blocking SEMA4A.
The target in a further test is human ILT4-ECD (human). The test is described as follows: ELISA. (In general: ELISA stands for enzyme-linked immunosorbent assay.)
The target in test [3] is human ILT4 (cell surface) (human). The experiment in a line: FACS. In general terms: A flow cytometer gives signals particle by particle.
The target of a further test is monkey ILT4-ECD (cynomolgus). The test is described as follows: ELISA.
Chain of monkey ILT4-ECD (cynomolgus) (chain, as listed by the source): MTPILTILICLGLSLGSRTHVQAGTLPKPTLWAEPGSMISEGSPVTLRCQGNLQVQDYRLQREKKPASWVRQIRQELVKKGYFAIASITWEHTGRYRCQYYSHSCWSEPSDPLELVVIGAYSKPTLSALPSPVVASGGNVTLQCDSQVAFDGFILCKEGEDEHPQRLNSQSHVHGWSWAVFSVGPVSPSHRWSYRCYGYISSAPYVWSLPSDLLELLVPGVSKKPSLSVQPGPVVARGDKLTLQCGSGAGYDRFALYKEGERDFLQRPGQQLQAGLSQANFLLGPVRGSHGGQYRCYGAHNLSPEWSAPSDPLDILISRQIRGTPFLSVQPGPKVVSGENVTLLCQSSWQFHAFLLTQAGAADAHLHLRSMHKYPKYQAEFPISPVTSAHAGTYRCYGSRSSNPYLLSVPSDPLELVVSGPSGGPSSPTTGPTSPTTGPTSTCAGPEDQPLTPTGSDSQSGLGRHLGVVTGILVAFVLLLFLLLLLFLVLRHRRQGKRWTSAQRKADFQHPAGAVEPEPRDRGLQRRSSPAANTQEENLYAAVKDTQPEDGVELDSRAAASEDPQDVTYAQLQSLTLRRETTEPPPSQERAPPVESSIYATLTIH

Chain of human ILT4-ECD (human) (chain, as listed by the source): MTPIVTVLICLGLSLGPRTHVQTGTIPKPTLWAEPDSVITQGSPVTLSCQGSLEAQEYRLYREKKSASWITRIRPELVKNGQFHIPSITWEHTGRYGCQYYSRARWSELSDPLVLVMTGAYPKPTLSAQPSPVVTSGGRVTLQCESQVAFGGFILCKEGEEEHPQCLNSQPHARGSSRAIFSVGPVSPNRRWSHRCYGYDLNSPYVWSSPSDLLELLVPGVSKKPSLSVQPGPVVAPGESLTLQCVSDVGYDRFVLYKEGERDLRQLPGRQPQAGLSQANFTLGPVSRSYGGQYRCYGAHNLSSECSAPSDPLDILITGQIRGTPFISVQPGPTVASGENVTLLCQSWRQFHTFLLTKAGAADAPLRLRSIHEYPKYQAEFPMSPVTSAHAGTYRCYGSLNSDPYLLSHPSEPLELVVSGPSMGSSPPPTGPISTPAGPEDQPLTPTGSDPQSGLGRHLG
Chain of human ILT4 (cell surface) (human) (chain, as listed by the source): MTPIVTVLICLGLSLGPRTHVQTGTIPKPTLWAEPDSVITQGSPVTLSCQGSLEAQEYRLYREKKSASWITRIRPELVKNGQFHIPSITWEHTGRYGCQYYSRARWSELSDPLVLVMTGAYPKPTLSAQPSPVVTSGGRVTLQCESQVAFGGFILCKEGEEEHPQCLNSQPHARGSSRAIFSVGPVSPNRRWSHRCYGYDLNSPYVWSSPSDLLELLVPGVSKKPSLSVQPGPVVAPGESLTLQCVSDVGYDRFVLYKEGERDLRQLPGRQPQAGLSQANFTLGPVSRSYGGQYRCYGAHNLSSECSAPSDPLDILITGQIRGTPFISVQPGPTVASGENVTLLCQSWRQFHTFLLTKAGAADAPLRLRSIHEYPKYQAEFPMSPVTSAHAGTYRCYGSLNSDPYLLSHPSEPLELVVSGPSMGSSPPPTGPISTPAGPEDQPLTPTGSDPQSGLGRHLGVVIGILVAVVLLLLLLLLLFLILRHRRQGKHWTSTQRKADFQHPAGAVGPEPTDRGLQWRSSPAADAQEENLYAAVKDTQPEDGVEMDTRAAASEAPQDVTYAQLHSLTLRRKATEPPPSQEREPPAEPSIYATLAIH

B1: PR303413 (antibody, V domains shown)
VH: QVQLVESGGGVVQPGRSLRLSCAASGFTFSSYGMHWVRQAPGKGLGWVAGIWYAGSNEYYVDSVKGRFIISRDNSKNTLYLQMNSLRAEDTAVYYCARDQGWGTMDAWGQGASVTVSS
VL: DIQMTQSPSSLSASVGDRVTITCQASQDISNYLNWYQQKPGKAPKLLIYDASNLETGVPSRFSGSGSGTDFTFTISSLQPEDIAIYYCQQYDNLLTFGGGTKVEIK
Regarding B1, the IC50 with huILT4 protein [1] turned out to be 5.33 nM; with huILT4 protein [2], 40.9 nM. The EC50 amounted to 0.021 nM with human ILT4-ECD and 0.345 nM in test [3].

B2: PR301366 (antibody, V domains shown)
VH: EVQLLESGGGLVQPGGSLRLSCAASGFTFSNYAMNWVRQAPGKGLEWVSVISVSGGSTYYADSVKGRFTISRDNSKNTLYLQMNSLRAEDTAVYYCAKDYYYDSGSYYDSFFDYWGQGTLVTVSS
VL: not shown
Regarding B2, the values for the IC50 with huILT4 protein [1] and with huILT4 protein [2] were 3.99 nM and 34.8 nM, respectively. The EC50 with monkey ILT4-ECD is 0.401 nM; in the test with human ILT4-ECD it was 0.014 nM; in test [3], 0.362 nM.

B3: PR302261 (antibody, V domains shown)
VH: EVQLLESGGGLVQSGGSLRLSCAASGFTFSSYAMSWVRQAPGKGLGWVSTISGSGGSAYYADSVKGRFTVSRDNSKKTLYLQMNSLRAEDTAVYFCAILSGDDAFDIWGQGTMVTVSS
VL: DVVMTQSPLSLPVTPGEPASISCRSSQSLLRGNGYNYLDWYLQKPGQSPQLLIYLGSNRASGVPDRFSGSGSGTDFTLKISRVEAEDVGIFYCMQALQSPLTFGGGTKVEIK
With B3, the EC50 came to 0.008 nM with monkey ILT4-ECD and 0.032 nM with human ILT4-ECD.

B4: PR302259-1 (antibody, V domains shown)
VH: EVQLLESGGGLVQPGGSLRLSCAVSGFTFSSYAMSWVRQAPGKGLEWVSAISDNAGSTYYADSVKGRFTISRDNSKNTLHLQMNSLRAEDTAVYSCAKERQWLVLGVMDAWGQGASVTVSS
VL: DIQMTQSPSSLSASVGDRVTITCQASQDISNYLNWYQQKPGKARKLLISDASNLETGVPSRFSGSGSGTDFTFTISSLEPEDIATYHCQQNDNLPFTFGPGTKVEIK
For the molecule B4, the results for the EC50 (with human ILT4-ECD; in test [3]) were 0.012 nM and 0.262 nM, respectively.

B5: PR302259 (antibody, V domains shown)
VH: EVQLLESGGGLVQPGGSLRLSCAVSGFTFSSYAMSWVRQAPGKGLEWVSAISDNAGSTYYADSVKGRFTISRDNSKNTLHLQMNSLRAEDTAVYSCAKERQWLVLGVMDAWGQGASVTVSS
VL: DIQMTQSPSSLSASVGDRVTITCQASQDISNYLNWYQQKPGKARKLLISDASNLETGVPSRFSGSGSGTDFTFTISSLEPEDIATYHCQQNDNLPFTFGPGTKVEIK
For B5, the results for the 50% inhibitory concentration (IC50) with huILT4 protein [1] and in the test with huILT4 protein [2] were 3.4 nM and 34.1 nM, respectively.

B6: PR302949 (antibody, V domains shown)
VH: EVQLLESGGGLVQPGGSLRLSCAASGFTFSSYAMSWVRQAPGKGLEWVSSISGSDFSTYYADSVKGRFTISRDTSKNTLYLQMNSLRAEDTAVYYCAKDRQWLVSSFDFWGQGALVTVSS
VL: DIQMTQSPSSLSASVGDRVTITCQASQDISNYLNWYQQKPGKAPKLLIYDASNLETGVPSRFSGSGSGTDFTFTISSLQPEDIATYYCQQYDNLITFGQGTRLEIK
On to B6, for which the IC50 with huILT4 protein [1] amounted to 8.86 nM; in the test with huILT4 protein [2] it was 47.9 nM. The midpoint of the response in the test with human ILT4-ECD, the EC50, lay at 0.023 nM.

B7: PR302702 (antibody, V domains shown)
VH: EVQLLESGGGLVQPGGSLRLSCAASGFTFSTYAMTWVRQAPGKGLEWVSSISGSDFNTYYADSVKGRFTISRDISKNTLYLQMNSLRAEDTAVYYCAKDQEWLVRSFHHWGQGTLVTVSS
VL: DIQMTQFPSSLFAFVGDRVTITCQASQDISNYLNWYQQKAGKAPKLLINDASNLETGVPSRFSGSGFGTDFTFTISSLQPEDFATYYCQQYENLPTFGGGTKVEIK
Regarding B7, in the test with human ILT4-ECD, a half-maximal response (EC50) required 0.029 nM.

B8: PR302282 (antibody, V domains shown)
VH: QVQLVESGGTVVQSGRSLRLSCAASGFTFSSYGMHWVRQAPGKGLEWVAGMWYDGNYKYYADSVKGRFTISRDNSKNTLSLQMNSLRAEDTAVYYCARDSPIGVFDYWGQGTLVTVSS
VL: DIQMTQSPSSLSASVGDRVTITCQASQDISNYLNWYQQKPGKAPKLLIYDASNLETGVPSRFSGSGSGTDFTFTISSLQPEDIATYYCQQYDNLITFGQGTRLEIK
Take B8: the IC50 in the test with huILT4 protein [2] amounted to 48.1 nM. Besides, the results for the EC50 (in the test with human ILT4-ECD; in test [3]) were 0.015 nM and 1.88 nM, respectively.

B9: PR302951 (antibody, V domains shown)
VH: EVQLLESGGGLVQPGGSLRLSCAASRFTFSTYAMSWVRQAPGKGLEWVSSISGSGFNTYYADSVKGRFTISSDSSKNTLYLQMNSLRAEDTAVYYCAKDRQWLVSSFDYWGQGTLVTVSS
VL: DIQMTQSPSSLSASVGDRVTITCQASQDISNYLNWYQQKPGKAPKLLIYDASNLETGVPSRFSGSGSGTDFTFTISSLQPEDIATYYCQQYDNLITFGQGTRLEIK
For the molecule B9, the IC50 with huILT4 protein [1] turned out to be 8.6 nM; with huILT4 protein [2], 52.9 nM. This molecule had an EC50 in the test with human ILT4-ECD of 0.015 nM.

B10: PR302950 (antibody, V domains shown)
VH: QVQLQESGPGLVKPSGTLSLTCAVSGGSISSSNWWSWVRQPPGKGLEWIGEVYHSGSTNYNPSLKSRVTISVDKSQNQFSLKLTSVTAADTAVYYCARVTGNKDYYYYDLDVWGQGTTVTVSS
VL: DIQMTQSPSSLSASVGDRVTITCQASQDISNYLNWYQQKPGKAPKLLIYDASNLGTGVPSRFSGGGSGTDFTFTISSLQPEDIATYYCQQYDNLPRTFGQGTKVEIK
In the case of B10, the figures for the IC50 with huILT4 protein [1] and in the test with huILT4 protein [2] were 9.34 nM and 65 nM, respectively. The molecule also gave an EC50 with human ILT4-ECD of 0.056 nM.

B11: PR302934 (antibody, V domains shown)
VH: QVQLQQWGAGLLKPSETLSLTCAVYGGSFSGYYWSWIRQTLGKGLEWIGEVSHSGGTNYNPSLKSRVTISVDTSKNQFSLKLSSVTAADTAVYYCARSPYYGDYMYVFDIWGQGTMVTVSS
VL: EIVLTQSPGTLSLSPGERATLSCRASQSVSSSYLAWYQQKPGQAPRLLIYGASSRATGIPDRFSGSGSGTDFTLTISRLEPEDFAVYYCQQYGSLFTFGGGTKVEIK
B11: the figures for the EC50 with monkey ILT4-ECD and with human ILT4-ECD were 0.047 nM and 0.012 nM, respectively.

B12: PR302927 (antibody, V domains shown)
VH: EVQLLESGGGLVQPGGSLRLSCAASGFTFSSYAMSWVRQAPGKGLEWVSTINHIGDSTYYADSVKGRFTISRDNSKNTLYLQMNSLRAEDTAVYYCAKDQWFGVFDYWGQGTLVTVSS
VL: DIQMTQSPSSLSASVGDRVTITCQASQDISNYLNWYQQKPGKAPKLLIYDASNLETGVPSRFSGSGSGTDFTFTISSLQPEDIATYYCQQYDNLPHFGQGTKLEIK
Turning to B12, the IC50 with huILT4 protein [1] is 10.6 nM; with huILT4 protein [2], 61.5 nM. Also, the EC50 with human ILT4-ECD turned out to be 0.025 nM.

B13: PR302264 (antibody, V domains shown)
VH: QVQLQQWGAGLLKPSETLSLTCAVYGGSLSGYYWSWIRQPPGKGLEWIGEINHSGGTNYNPSLKSRVTISVPTSKNQFSLKLTSVTAADTAVYYCARGQQQLDWYFDLWGRGTLVTVSS
VL: EIVMTQSPATLSVSPGERATLSCRASQNIYSHLVWYQQKPGQAPRLLIYGASTRATGIPARFSGSGSGTEFTLTITSLQSEDFTVYYCQQYNDWPPITFGQGTRLEIR
As to B13, the EC50 with monkey ILT4-ECD was 0.935 nM; in the test with human ILT4-ECD, 0.026 nM.

B14: PR302239 (antibody, V domains shown)
VH: QVQLQESGPGLVKPSETLSLTCTVSGDSISSYYWSWIRQPPGKGLEWIGFIYYSGSTNYNPSLKSRVTISVDTSKNQFSLKLTSVTAADTAVYYCANQLWFGESPFDYWGQGTLVTVSS
VL: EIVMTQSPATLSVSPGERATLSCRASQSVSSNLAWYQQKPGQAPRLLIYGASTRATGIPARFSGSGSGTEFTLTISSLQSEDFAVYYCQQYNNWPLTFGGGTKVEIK
The molecule B14 came in with a 50% inhibitory concentration (IC50) with huILT4 protein [1] of 6.49 nM.

B15: PR302239-1 (antibody, V domains shown)
VH: QVQLQESGPGLVKPSETLSLTCTVSGDSISSYYWSWIRQPPGKGLEWIGFIYYSGSTNYNPSLKSRVTISVDTSKNQFSLKLTSVTAADTAVYYCANQLWFGESPFDYWGQGTLVTVSS
VL: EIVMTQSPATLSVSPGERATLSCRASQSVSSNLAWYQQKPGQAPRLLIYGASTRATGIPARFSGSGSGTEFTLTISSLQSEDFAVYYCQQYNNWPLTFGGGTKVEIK
For the molecule B15, the EC50 with human ILT4-ECD was determined as 0.036 nM; in test [3], 0.931 nM.

Source of the values: patent publication US20260374861 (published 2026).
